The values below come from patent publication US20240002497A1 (Merck Sharp & Dohme, published 2024).

Where a chain is given by its changes, count along the chain named. In names and notes the source's numbering stands.

As a reminder, the EC50 is the concentration that produces a half-maximal response.

B1: F010301868 (VHH)
VHH: EVQLVESGGGVVQPGGSLRLSCATTSRAFIRDVFTGWYRRVPGKERELVARIYNGGNTNYADFAKGRFTISRDNAKKMVYLQMNSLRPEDTALYYCLFSGTINTGREYRSGDYWGQGTLVTVSS
notes: also called F0103464B09(L11V, S68T, T79Y, R81Q, S82aN, N82bS, K83R, G88A, V89L)
B2: F010301874 (VHH)
VHH: B1 VHH with V41A
notes: also called F0103464B09(L11V, V40A, S68T, T79Y, R81Q, S82aN, N82bS, K83R, G88A, V89L)
B3: F010301873 (VHH)
VHH: B1 VHH with R40Q
notes: also called F0103464B09(L11V, R39Q, S68T, T79Y, R81Q, S82aN, N82bS, K83R, G88A, V89L)
B4: F010301869 (VHH)
VHH: B1 VHH with M78T
notes: also called F0103464B09(L11V, S68T, M77T, T79Y, R81Q, S82aN, N82bS, K83R, G88A, V89L)
B5: F010301871 (VHH)
VHH: B1 VHH with T24A
notes: also called F0103464B09(L11V, T24A, S68T, T79Y, R81Q, S82aN, N82bS, K83R, AG88, V89L)
B6: F010301872 (VHH)
VHH: B1 VHH with T25S
notes: also called F0103464B09(L11V, T25S, S68T, T79Y, R81Q, S82aN, N82bS, K83R, G88A, V89L)
B7: F010301592 (VHH)
VHH: EVQLVESGGGLVQAGGSLRLSCAASVRPFSTSAMGWFRQAPEKEREAVAGILWNGIVTYYADSVKGRFTISRDNAKNEVYLQMNKLKPEDTAVYYCALDRDYGGSSFSAYEYEYWGQGTLVTVSS
notes: R100aS vs F0103362B08 (Kabat)
B8: F010301617 (VHH)
VHH: B7 VHH with S105R, F107Q
notes: F100cQ vs F0103362B08 (Kabat)
B9: F010301595 (VHH)
VHH: B7 VHH with D101A, S105R
notes: D97A vs F0103362B08 (Kabat)
B10: F010301612 (VHH)
VHH: B7 VHH with S105R, Y110T
notes: Y100fT vs F0103362B08 (Kabat)
B11: F010301619 (VHH)
VHH: B7 VHH with S105R, F107K
notes: F100cK vs F0103362B08 (Kabat)
B12: F010301607 (VHH)
VHH: B7 VHH with S105R, Y110A
notes: Y100fA vs F0103362B08 (Kabat)
B13: F010301593 (VHH)
VHH: B7 VHH with R100K, S105R
notes: R96K vs F0103362B08 (Kabat)
B14: F010301618 (VHH)
VHH: B7 VHH with S105R, Y114H
notes: Y102H vs F0103362B08 (Kabat)
B15: F010301594 (VHH)
VHH: B7 VHH with S105K
notes: R100aK vs F0103362B08 (Kabat)
B16: F010301621 (VHH)
VHH: B7 VHH with S105R, Y110G
notes: Y100fG vs F0103362B08 (Kabat)
B17: F010301627 (VHH)
VHH: B7 VHH with G50A, S105R
notes: G50A vs F0103362B08 (Kabat)
B18: F010301629 (VHH)
VHH: B7 VHH with G50S, S105R
notes: G50S vs F0103362B08 (Kabat)
B19: F010301609 (VHH)
VHH: B7 VHH with S105R, Y110Q
notes: Y100fQ vs F0103362B08 (Kabat)
B20: F010301604 (VHH)
VHH: B7 VHH with S105Q
notes: R100aQ vs F0103362B08 (Kabat)
B21: F010301596 (VHH)
VHH: B7 VHH with G103A, S105R
notes: G99A vs F0103362B08 (Kabat)
B22: F010301622 (VHH)
VHH: B7 VHH with S105R, Y110D
notes: Y100fD vs F0103362B08 (Kabat)
B23: F010301598 (VHH)
VHH: B7 VHH with G103Q, S105R
notes: G99Q vs F0103362B08 (Kabat)
B24: F010301606 (VHH)
VHH: B7 VHH with S105R, Y110K
notes: Y100fK vs F0103362B08 (Kabat)
B25: F010301301 (VHH)
VHH: EVQLVESGGGLVQAGGSLRLSCDASGRILRTGYMRWHRQGAGKQREFVARITDDSATDYADSVKGRFTISRDNAKNTVYLQMNNLNPEDTAVYYCEALVTASVRGGSIHSGTYWGRGTLVTVSS
notes: vs 387G05: I31T
B26: F010301387 (VHH)
VHH: B25 VHH with T31I, V103A
notes: vs 387G05: V100A
B27: F010301440 (VHH)
VHH: B25 VHH with T31I, G111T
notes: vs 387G05: G100hT
B28: F010301416 (VHH)
VHH: B25 VHH with T31I, T112Q
notes: vs 387G05: T101Q
B29: F010301409 (VHH)
VHH: B25 VHH with T31I, H109V
notes: vs 387G05: H100fV
B30: F010301418 (VHH)
VHH: B25 VHH with T31I, Y113W
notes: vs 387G05: Y102W
B31: F010301425 (VHH)
VHH: B25 VHH with T31I, G105V
notes: vs 387G05: G100bV
B32: F010301313 (VHH)
VHH: B25 VHH with T31I, R35K
notes: vs 387G05: R35K
B33: F010301328 (VHH)
VHH: B25 VHH with T31I, T57V
notes: vs 387G05: T57V
B34: F010301360 (VHH)
VHH: B25 VHH with T31I, A56T
notes: vs 387G05: A56T
B35: F010301309 (VHH)
VHH: B25 VHH with L29V, T31I
notes: vs 387G05: L29V
B36: F010301335 (VHH)
VHH: B25 VHH with T31I, R50V
notes: vs 387G05: R50V
B37: F010301304 (VHH)
VHH: B25 VHH with T31W
notes: vs 387G05: I31W

For the first assay, the target named is T1, rhNav1.7α + β1-β2-β3 (rhesus monkey).
T1 construct: also called rhNav1.7-beta1-beta2-beta3; rhNav1.7-β1-β2-β3
The experiment in a line: binding FACS, CHO FlpIn. In outline:
(§1)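 Assessment used purified FLAG3-tagged ISVD incubated on cells for 30 minutes at 4° C in PBS containing 10% FBS and NaN₃, with cells washed between steps. Propidium iodide (1 μg/mL) staining removed dead cells from analysis.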
In the case of B1, the half-maximal effective concentration (EC50) was found to be 62 nM.
As for B2, the EC50 was found to be 55 nM.
Take B3: the EC50 came to 110 nM.
For the molecule B4, the EC50 was 96 nM.
As for B5, the EC50 stood at 37 nM.
B6: the EC50 is 57 nM.

In the next assay the target is T2, huNav1.7α + β1-β2-β3 (human, UniProt Q15858 1-1988; A5A6L6 19-218; O60939 30-215; Q2KI11 23-215).
T2 construct: also called huNav1.7-beta1-beta2-beta3; huNav1.7-β1-β2-β3
The experiment in a line: binding FACS, CHO FlpIn. In outline:
as §1
Regarding B1, the Bmax worked out at 98% and the EC50 stood at 6.3 nM.
Consider B2, for which the Bmax stood at 100% and the EC50 amounted to 6.5 nM.
As for B3, the Bmax turned out to be 100% and the EC50 was 9 nM.
For the molecule B4, the Bmax is 100% and the EC50 was found to be 7.6 nM.
On to B5, for which the Bmax worked out at 100% and the EC50 worked out at 5.8 nM.
As to B6, the Bmax was determined as 100% and the EC50 was determined as 6.8 nM.

In a further assay the target is T3, huNav1.7α + β1-β2-β3 (human, UniProt Q15858 1-1988; A5A6L6 19-218; O60939 30-215; Q2KI11 23-215).
T3 construct: Cell line (CHO FlpIn, HEK FlpIn, transient HEK293T) is named under assay; also called huNav1.7-beta1-beta2-beta3; human Nav1.7α with Navβ1, Navβ2 and Navβ3
The experiment in a line: binding FACS, CHO FlpIn cells. In outline: as §1
Consider B7, for which the concentration for a half-maximal effect (EC50) amounted to 200 nM.
As for B8, the EC50 is 170 nM.
B9: the EC50 was determined as 62 nM.
With B10, the EC50 amounted to 170 nM.
The same measure, in the same setting: in the case of B11 it was 180 nM.
On to B12, for which the EC50 worked out at 90 nM.
Take B13: the EC50 amounted to 110 nM.
B14: the EC50 was 190 nM.
Same read-out and setting: the result for B15 reads 110 nM.
On to B16, for which the EC50 worked out at 150 nM.
Still for that read-out and setting: in the case of B17 it was 76 nM; in that of B18, 120 nM.
Same read-out and setting: in the case of B19 it was 190 nM.
Take B20: the EC50 was 190 nM.
On the same count and under the same terms, the result for B21 reads 140 nM; that for B22, 170 nM; that for B23, 89 nM.
For B24, the EC50 amounted to 65 nM.

The target of a further assay is T4, huNav1.7α+β1-β2-β3 (human, UniProt Q15858 1-1988; Q07699 19-218; O60939 30-215; Q9NY72 23-215).
T4 construct: 5N11S variant; also called huNav1.7-beta1-beta2-beta3; huNav1.7α+Navβ1-Navβ2-Navβ3
The experiment in a line: binding FACS, CHO FlpIn cells. Put shortly: as §1
For the molecule B25, the EC50 is 7.3 nM.
B26 had a concentration for a half-maximal effect (EC50) of 5.2 nM.
On to B27, for which the EC50 was found to be 5.7 nM.
Consider B28, for which the binding result was “no binding”.
In the case of B29, the EC50 is 5.1 nM.
B30 came in with an EC50 of 4.9 nM.
As for B31, the response was half-maximal at 15 nM (EC50).
For the molecule B32, the response was half-maximal at 5.5 nM (EC50).
The same measure, in the same setting: in the case of B33 it was 5 nM; in that of B34, 5.2 nM.
For the molecule B35, a half-maximal effect (EC50) was put at 5.4 nM.
Regarding B36, the half-maximal effective concentration (EC50) stood at 7.9 nM.
The molecule B37 came in with an EC50 of 5.7 nM.

The target of a further assay is T5, muNav1.7α (murine, UniProt Q62205 1-1984).
T5 construct: HEK JmpIn cells; also called murine Nav1.7α
The experiment in a line: binding FACS, HEK JmpIn. On the procedure:
(§2) Binding of the ISVDs to cell-expressed Nav1.7α was detected via murine anti-Flag (Sigma, catalog #F1804). Briefly, cells were resuspended in FACS buffer (PBS, 10% FBS, NaN₃) and transferred to a 96-well V-bottom plate at 1×10^5 cells/well. Purified FLAG3-tagged ISVD was diluted in FACS buffer and added to the cells for 30 minutes at 4° C. […] Prior to the read-out, the samples were resuspended in 1 μg/mL propidium iodide (Sigma, catalog #P4170) to exclude dead cells. Between each step, the cells were centrifuged for 5 minutes at 200 grams and washed with 100 μL/well FACS buffer.
On to B1, for which the concentration giving a half-maximal response (EC50) was 11 nM.
With B2, a half-maximal effect (EC50) was put at 18 nM.
Turning to B3, the 50% effective concentration (EC50) is 42 nM.
Molecule B4 showed an EC50 of 17 nM.
Take B5: it took 24 nM to reach a half-maximal effect (EC50).
Turning to B6, the EC50 is 21 nM.

A further assay concerns the target T6, huNav1.7α + β1 (HEKa/β1) (human, UniProt Q15858 1-1988; Q07699 19-218).
T6 construct: also called HEKa/β1 huNav1.7α
The experiment in a line: binding FACS, HEKa/β1 cells. On the procedure:
as §2
In the case of B7, the EC50 was determined as 67 nM.
On to B8, for which the EC50 turned out to be 44 nM.
Consider B9, for which the EC50 was 17 nM.
Turning to B10, the EC50 worked out at 44 nM.
Take B11: the concentration for a half-maximal effect (EC50) is 47 nM.
Still for that read-out and setting: in the case of B12 it was 30 nM; in that of B13, 40 nM; in that of B14, 39 nM.
The same measure, in the same setting: the result for B15 reads 29 nM.
Same read-out and setting: in the case of B16 it was 34 nM; in that of B17, 23 nM; in that of B18, 42 nM.
On to B19, for which the EC50 came to 37 nM.
Turning to B20, the half-maximal effective concentration (EC50) was 52 nM.
Take B21: the EC50 was determined as 50 nM.
Regarding B22, the EC50 was determined as 40 nM.
As to B23, the EC50 came out at 29 nM.
For B24, the EC50 is 24 nM.
